Data on 3 molecules can be found in PMC3599065.

The target in this assay is kinesin-1 (endogenous, Neuro2a), Q61768;O88447. Briefly: co-immunoprecipitation with anti-GFP antibody, western blot for KHC, quantified. The settings on record: chain shown with the change, lysates of Neuro2a cells expressing GFP-JIP1 constructs, kinesin-1 signal normalized to precipitated GFP-JIP1, n > 3. Background: In western blotting, separated proteins are transferred to a membrane and probed.
kinesin-1 (endogenous, Neuro2a), Q61768;O88447, sequence (chain, as listed by the source, chain 1 of 2): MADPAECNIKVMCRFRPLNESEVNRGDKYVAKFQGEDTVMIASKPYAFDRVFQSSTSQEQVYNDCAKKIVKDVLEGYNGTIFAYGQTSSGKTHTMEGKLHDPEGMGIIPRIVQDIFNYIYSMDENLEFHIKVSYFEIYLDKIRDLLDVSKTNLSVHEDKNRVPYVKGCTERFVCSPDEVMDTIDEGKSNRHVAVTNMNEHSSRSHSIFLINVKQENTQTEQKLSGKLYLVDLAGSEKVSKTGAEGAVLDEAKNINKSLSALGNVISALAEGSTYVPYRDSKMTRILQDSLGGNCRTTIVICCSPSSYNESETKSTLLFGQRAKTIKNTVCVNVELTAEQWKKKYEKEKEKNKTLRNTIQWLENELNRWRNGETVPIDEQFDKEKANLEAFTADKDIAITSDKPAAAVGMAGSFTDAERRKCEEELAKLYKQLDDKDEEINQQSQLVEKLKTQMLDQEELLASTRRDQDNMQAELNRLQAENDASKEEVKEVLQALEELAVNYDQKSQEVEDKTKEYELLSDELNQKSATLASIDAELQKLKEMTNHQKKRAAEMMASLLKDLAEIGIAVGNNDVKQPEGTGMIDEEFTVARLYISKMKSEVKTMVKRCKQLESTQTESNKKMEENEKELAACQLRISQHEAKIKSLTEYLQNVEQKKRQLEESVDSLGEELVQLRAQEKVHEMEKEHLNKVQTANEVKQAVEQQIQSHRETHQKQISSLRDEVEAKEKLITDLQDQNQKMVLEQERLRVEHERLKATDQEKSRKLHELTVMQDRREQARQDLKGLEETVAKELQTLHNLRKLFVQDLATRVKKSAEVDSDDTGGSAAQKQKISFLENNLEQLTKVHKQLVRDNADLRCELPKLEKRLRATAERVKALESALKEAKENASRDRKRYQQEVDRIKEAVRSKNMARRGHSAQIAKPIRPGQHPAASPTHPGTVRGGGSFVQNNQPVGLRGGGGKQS
kinesin-1 (endogenous, Neuro2a), Q61768;O88447, sequence (chain, as listed by the source, chain 2 of 2): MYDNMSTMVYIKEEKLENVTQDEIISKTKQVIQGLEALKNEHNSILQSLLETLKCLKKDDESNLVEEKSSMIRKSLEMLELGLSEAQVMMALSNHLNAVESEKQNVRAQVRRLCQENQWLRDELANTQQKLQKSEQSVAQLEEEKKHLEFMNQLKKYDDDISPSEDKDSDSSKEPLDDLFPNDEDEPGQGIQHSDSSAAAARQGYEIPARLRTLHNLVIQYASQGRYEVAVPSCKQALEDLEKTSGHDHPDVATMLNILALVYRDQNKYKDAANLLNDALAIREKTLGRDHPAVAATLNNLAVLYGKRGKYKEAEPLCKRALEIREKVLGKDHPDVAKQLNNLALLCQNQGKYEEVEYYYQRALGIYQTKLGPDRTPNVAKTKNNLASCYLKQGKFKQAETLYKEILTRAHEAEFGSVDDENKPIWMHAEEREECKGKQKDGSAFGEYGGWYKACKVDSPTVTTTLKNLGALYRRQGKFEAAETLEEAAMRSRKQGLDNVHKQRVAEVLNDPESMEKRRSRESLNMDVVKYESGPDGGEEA

B1: GFP-JIP1-WT, Q9WVI9-1 V581A (protein)
chain: MAERESGLGGGAASPPAASPFLGLHIASPPNFRLTHDISLEEFEDEDLSEITDECGISLQCKDTLSLRPPRAGLLSAGSSGSAGSRLQAEMLQMDLIDAAGDTPGAEDDEEEEDDELAAQRPGVGPPKAESNQDPAPRSQGQGPGTGSGDTYRPKRPTTLNLFPQVPRSQDTLNNNSLGKKHSWQDRVSRSSSPLKTGEQTPPHEHICLSDELPPQGSPVPTQDRGTSTDSPCRRSAATQMAPPSGPPATAPGGRGHSHRDRIHYQADVRLEATEEIYLTPVQRPPDPAEPTSTFMPPTESRMSVSSDPDPAAYSVTAGRPHPSISEEDEGFDCLSSPERAEPPGGGWRGSLGEPPPPPRASLSSDTSALSYDSVKYTLVVDEHAQLELVSLRPCFGDYSDESDSATVYDNCASASSPYESAIGEEYEEAPQPRPPTCLSEDSTPDEPDVHFSKKFLNVFMSGRSRSSSAESFGLFSCVINGEEHEQTHRAIFRFVPRHEDELELEVDDPLLVELQAEDYWYEAYNMRTGARGVFPAYYAIEVTKEPEHMAALAKNSDWIDQFRVKFLGSVQVPYHKGNDALCAAMQKIATTRRLTVHFNPPSSCVLEISVRGVKIGVKADDALEAKGNKCSHFFQLKNISFCGYHPKNNKYFGFITKHPADHRFACHVFVSEDSTKALAESVGRAFQQFYKQFVEYTCPTEDIYLE
Consider B1, for which the percent of parent was 13.4.

B2: GFP-JIP1-WT, Q9WVI9-1 F642V (protein)
chain: MAERESGLGGGAASPPAASPFLGLHIASPPNFRLTHDISLEEFEDEDLSEITDECGISLQCKDTLSLRPPRAGLLSAGSSGSAGSRLQAEMLQMDLIDAAGDTPGAEDDEEEEDDELAAQRPGVGPPKAESNQDPAPRSQGQGPGTGSGDTYRPKRPTTLNLFPQVPRSQDTLNNNSLGKKHSWQDRVSRSSSPLKTGEQTPPHEHICLSDELPPQGSPVPTQDRGTSTDSPCRRSAATQMAPPSGPPATAPGGRGHSHRDRIHYQADVRLEATEEIYLTPVQRPPDPAEPTSTFMPPTESRMSVSSDPDPAAYSVTAGRPHPSISEEDEGFDCLSSPERAEPPGGGWRGSLGEPPPPPRASLSSDTSALSYDSVKYTLVVDEHAQLELVSLRPCFGDYSDESDSATVYDNCASASSPYESAIGEEYEEAPQPRPPTCLSEDSTPDEPDVHFSKKFLNVFMSGRSRSSSAESFGLFSCVINGEEHEQTHRAIFRFVPRHEDELELEVDDPLLVELQAEDYWYEAYNMRTGARGVFPAYYAIEVTKEPEHMAALAKNSDWIDQFRVKFLGSVQVPYHKGNDVLCAAMQKIATTRRLTVHFNPPSSCVLEISVRGVKIGVKADDALEAKGNKCSHFFQLKNISVCGYHPKNNKYFGFITKHPADHRFACHVFVSEDSTKALAESVGRAFQQFYKQFVEYTCPTEDIYLE
Consider B2, for which the percent of parent was 3.7.

B3: GFP-JIP1-WT, Q9WVI9-1 F687V (protein)
chain: MAERESGLGGGAASPPAASPFLGLHIASPPNFRLTHDISLEEFEDEDLSEITDECGISLQCKDTLSLRPPRAGLLSAGSSGSAGSRLQAEMLQMDLIDAAGDTPGAEDDEEEEDDELAAQRPGVGPPKAESNQDPAPRSQGQGPGTGSGDTYRPKRPTTLNLFPQVPRSQDTLNNNSLGKKHSWQDRVSRSSSPLKTGEQTPPHEHICLSDELPPQGSPVPTQDRGTSTDSPCRRSAATQMAPPSGPPATAPGGRGHSHRDRIHYQADVRLEATEEIYLTPVQRPPDPAEPTSTFMPPTESRMSVSSDPDPAAYSVTAGRPHPSISEEDEGFDCLSSPERAEPPGGGWRGSLGEPPPPPRASLSSDTSALSYDSVKYTLVVDEHAQLELVSLRPCFGDYSDESDSATVYDNCASASSPYESAIGEEYEEAPQPRPPTCLSEDSTPDEPDVHFSKKFLNVFMSGRSRSSSAESFGLFSCVINGEEHEQTHRAIFRFVPRHEDELELEVDDPLLVELQAEDYWYEAYNMRTGARGVFPAYYAIEVTKEPEHMAALAKNSDWIDQFRVKFLGSVQVPYHKGNDVLCAAMQKIATTRRLTVHFNPPSSCVLEISVRGVKIGVKADDALEAKGNKCSHFFQLKNISFCGYHPKNNKYFGFITKHPADHRFACHVFVSEDSTKALAESVGRAVQQFYKQFVEYTCPTEDIYLE
Consider B3, for which the percent of parent came out at 25.4.
